Laboratory results published in the DeepSol protein solubility set.

Assay: soluble on expression in E. coli; label from the status in PepcDB or PDB records

| Sequence | soluble on expression in E. coli |
| --- | --- |
| MTINTEVFIRRNKLRRHFESEFRQINNEIREASKAAGVSSFHLKYSQALLDRAIQREIDETYVFELFHKIKDHVLEVNEFLSMPPRPDIDEDFIDGVEYRPGRLEITDGNLWLGFTVCKPNEKFKDPSLQCRMAIINSRRLPGKASKAVIKTQ | soluble |
| MSLKKEYLQCQSLVDVVRLRALHSPNKKSCTFLNKELEETMTYEQLDQHAKAIAATLQAEGAKPGDRVLLLFAPGLPLIQAFLGCLYAGCIAVPIYPPAQEKLLDKAQRIVTNSKPVIVLMIADHIKKFTADELNTNPKFLKIPAIALESIELNRSSSWQPTSIKSNDIAFLQYTSGSTMHPKGVMVSHHNLLDNLNKIFTSFHMNDETIIFSWLPPHHDMGLIGCILTPIYGGIQAIMMSPFSFLQNPLSWLKHITKYKATISGSPNFAYDYCVKRIREEKKEGLDLSSWVTAFNGAEPVREETMEHFYQAFKEFGFRKEAFYPCYGLAEATLLVTGGTPGSSYKTLTLAKEQFQDHRVHFADDNSPGSYKLVSSGNPIQEVKIIDPDTLIPCDFDQVGEIWVQSNSVAKGYWNQPEETRHAFAGKIKDDERSAIYLRTGDLGFLHENELYVTGRIKDLIIIYGKNHYPQDIEFSLMHSPLHHVLGKCAAFVIQEEHEYKLTVMCEVKNRFMDDVAQDNLFNEIFELVYENHQLEVHTIVLIPLKAMPHTTSGKIRRNFCRKHLLDKTLPIVATWQLNKIEEGHHHHHH | soluble |
| MAHHHHHHMHTLVNFYTKGSDPVHKATIMPRGMSLGVTWKIPISDKYSQKIRDVQSEIDILMGGLVSEEIIFGKNNVTTGCSSDLQRATHIAQSLVMNYGVGINEENISMFLQDKKNISEEMKIKIDKSIQRILLDSYNRAKKVLNQHIDELHRVASALVEYETLTSDEIKLAMQGKHDQIRKNRELKQKEFNLKDSRIS | soluble |
| MVIHCKMFNNQRKTLAKEYHELYMNNNTETRKNKHLNERERYAIELYLKEKYTVTEIAKRLGRHRRTIEREITRGTIYLQNSDLTYRKEYCADVAQRRYVENGKNKGPRLKIGNDHELVRYIESKIINEKYSPDAVIGQIKAKGLKFKTSICTKTLYNYIDRGDVFLRLTNKYLPVKKDGKKRIYQRVKKIALKNLKGSSIEERPKEVNDRKEYGHWEMDCVVGRKNSAAVLLVLSERKTREEIILKLPDKTQESVIKAIDELERKYRRKFREKFKTITVDNGTEFLDYRGIEKSKTEPGKDRTKVYYAHPYSSWERGTNENINKLIRRFIPKGTDISKVSKAKIKSIERWINEYPRRMFGYRSAIEMAV | not soluble |
| MSLRLRTLKDLDQAALLLARACALLLDDNTDVPDLRQVIFKCVPKNRLAESVSKVNELARPQNNNFHDEMVEQYGRVKRFLPAVLRDLHFRAAPAGEHVLAAIHYLAELNGSKKRILDDAPEHIITGPWKRLVYDAEGRIQRAGYSLCLLERLQDALRRRDIWLENSDRWGDPREKLLQGEEWQTQRIPVCRALGHPVDGRKGVQQLAIQLDETWKAVASRFEKNAEVHICNEGKYPSLTISCLEKQEEPPSLLRLNNRIKQLLPPVDLTELLLEIDAQTGFTHEFAHVSESGARAQDLHISLCAVLMAEACNIGLEPLIKHNIPALTRHRLSWVKQNYLRAETLVSANARLVDFQSTLELAGRWGGGEVASADGMRFVTPVKTINSGSNRKYFGSGRGITWYNFVSDQYSGFHGIVVPGTLRDSIFVLEGLLEQQTGLNPVEIMTDTAGSSDIIFGLFWLLGYQFSPRLADAGEAVFWRVNKSANYGVLDKLARGYADLSKAESQWDEMMRTAGSLKLGTIHASELIRSLLKSSRPSGLAQAIMEVGRVNKTLYLLNYIDDEDYRRRILTQLNRGEGRHAVARAICYGQRGEIRKRYREGQEDQLGALGLVTNAVVLWNTLYMEEALSWMRRNGEEIIDEDIARLSPLMHGHINMLGHYTFTLPEDILKGELRALNEGHHHHHH | not soluble |
| MDRKTRLSEPPTLALRLKPYKTAIQQLRSVIRALKENTTVTFLPTPSLILQTVRSHCVSKITFNSSCLYITDKSFQPKTINNSTPLLGNFMYLTSSKDLTKFYVQDISDLSAKISMCAPDFNMEFSSACVHGQDIVRESENSAVHVDLDFGVVADLLKWIGPHTRVKRNVKKAPCPTGTVQILVHAGPPAIKFILTNGSELEFTSNNRVSFHGVKNMRINVQLKNFYQTLLNCAVTKLPCTLRIVTEHDTLLYVASRNGLFAVENFLTEEPFQRGDPFDKNYVGNSGKSR | soluble |
| MAHHHHHHMTRTKVKKVQMQMKARETVAPPSTACTTTRCLYTLTTFDVKSGGVKTSGEFPAGGGPKLPRDPLLHYFVKSLHGFLSTCLVVTSQRLVTFSANNNFFCIATVFPTLHTSPSVKNSKSLALRGKTENVVTERLGV | not soluble |
| SLTNKLESNYNKIACNIFYDKYKNANEIIKALKLIDIDDNDFKKSFSIYSKKATSGNDEKIVKFLLFNIERHLSGGICDEQIATIEHILPSSLNDEKVHKLGNYILLEAKYNQQLKNKNFKEKIDIYSKSNFKLAQYVAENFKTWDTKSIDQYQNFLAKQALALWKF | soluble |
| MKKAGKKNSDAGKTFILISSSCSSCQKAIEFFDQNKISYVVENFYKKPISDKRFKDILSLSEDGTESLFSKRADQIKATNSVSVEELSISELIKLVRERPSLLRRPIIIQYNSSGIPKRMRIGYNSSEIKVFERKLIEPKPIIQQ | soluble |
| MVLPPQNRLCNEVCLEAGQSPNSNELYLNSSELLKTELNNDINLCLVDFCERHNIDYRGMVNRLVTNNMYFFYIWGKYALSKA | not soluble |
| KYSLLEIGLKKDNGSSETIKLKREAIKFENNTVKSYIIKDAKKIGYISIPSFYSDDSNPNALGAANELSKEILKLKNENIEGLIIDLRNNGGGSLYEAVGMSGLFIDIGPLFYVLERSGKATLTKDMNRGTVYDGPLCIMVNGYSASASEIFSAAMQDNHRALIVGEQTYGKATGQSISQLDTTKSISTFSATDNMGATKITEIKLYRTSGFSYQGKGVTPDIILPYL | not soluble |
| GSMAGEDVGAPPDHLWVHQEGIYRDEYQRTWVAVVEEETSFLRARVQQIQVPLGDAARPSHLLTSQLPLMWQLYPEERYMDNNSRLWQIQHHLMVRGVQELLLKLLPDDRSPGIHRD | soluble |
| DIGVWEYFPATDSLDWSDGVRRIHGVADEYEPSLDDALGFYHPDDRDKISKAVEQTIADREPYDIDLRIVRTDGDVRDVRAWGERVDDPQ | not soluble |
| MAHHHHHHMSKLIKLDCGVQHYAWGKEAAESYVAKMKGEGNKEGKYAELWVGTHPNCPSKTFSGQNLDDFLKNDNNMSRFVHPKQQADPRFRDTVPFLLKLLSVQTALSIQAHPNKQLAEKLHRENPEKYKDPNHKPELVVALTPFEALCCFRPLKDILEFLESASPLKTLLGPAADVLPGEVEDSEAIKHMMDIVYNTDAKKHAEALQEHAEELRSRGGEMTKEDSVFLRVLYQYPDDMGCWMVYFLNYVQLAPGEGLFLADSEPHAYLFGDSVEIMACSDNVVRAGLTPKWKDVPTLLRMLRYGTDGLERAKFERYRAPEGSEWELQHYSPPREFQDFSLYRIEHRVERQGQTHIKLPTVGLGFCVEGCGIVNGERVRLGECFLVPYGDLKIEAFGDFQIFVASMNYSLHSASHM | soluble |
| SRKRLSAPELRLSLTKGPGNDGASPTQSAPSSPDGSSDLEIDELETPSDSEQLDSGHEFEWEDELPRAEGLGTSETAERLGRGCMWDVTGEDGHHWRVFRMGPREQRVDMTVIEPYKKVLSHGGYHGDGLNAVILFASCYLPRSSIPNYTYVMEHLFRYMVGTLELLVAENYLLVHLSGGTSRAQVPPLSWIRQCYRTLDRRLRKNLRALVVVHATWYVKAFLALLRPFISSKFTRKIRFLDSLGELAQLISLDQVHIPEAVRQLDRDLHGSGGT | soluble |
| MGSDKIHHHHHHMGLEQDDEGGARRACVIVIGNQKGGSGKSTVAMHLVVSLARAGLRTGSIDLDAGQATLTRYLENRRAFAEKRGLDLPSPEHVPMVPGTSLEADIRRLEHSMLAFHEEVDVVVIDTPGSDTALNRAAHALADVLITPLNDSFIDLDVMARIDGDSMTITGPSPYAAAVWEAKQARARRDGTSMRWIVMRNRLSHLDARNKRDMEDALNDLSRRIGFSVVPGLGERVIYRELFLNGLTLLDLKDKGTGVDISMSHVAARQELRALLAAIGMPKSIGL | not soluble |
| GKLDATLRAIVHTAAELVDARYGALGVRGYDHRLVEFVYEGIDEETRHLIGSLPEGRGVLGALIEEPKPIRLDDISRHPASVGFPLHHPPMRTFLGVPVRIRDEVFGNLYLTEKADGQPFSDDDEVLVQALAAAAGIAVDNARLFEESR | soluble |
| MGSDKIHHHHHHMSDFHHGVQVVEINDGTRVISTVSTAIIGMVCTASDADAATFPLNKPALITSVQSAIAKAGTKGTLAASLQAIADQSKPVIVVVRVAEGTGDDAEAQTISNIIGGTDESGNYTGLKALLTAEAVTGVKPRILGVPGLDSLEVATALAPICQKLRAFGYISAWDCQNISEAMLYRENFSQRELMVIWPDFLAWDTTANATETVWATARALGLRAKIDQDTGWHKTLSNVGVNGVTGISASVFWDLQESGTDADLLNEAGVTTLIRKDGFRFWGNRCCSDDPLFLFENYTRTAQVIADTMAAGHMWAVDKPITATLIKDIVAGINAKFREMKTAGYIVDATCWFDESANDAATLKAGKLYIDYDYTPVPPLENLTLRQRITDKYLANLVSSVNSN | not soluble |
| MAFDGLFTRAITHEIANSLYTGRISKIYQPSKYEILLHIRANGKNQKLILSAHPTYARLHLTNQNYDSPALPPMFCMLLRKHLEGGFIEKIEQIDLERIIQITVRSRNEIGDESLKTLVIEIMGRHSNIILVDTKTNNILDSLKHVSLAVNRHRTVYAGAEYIAPPVQHKINPLQIETNDEFIRPLDFLSGNMDKQLVGTFTGISPLFAKEVVKKAGMVNEKALADAFFSIQKPLLTHTYSPTMTTSNGKEFFYLFPLAHLAGENKTFSSVSELLDRFFFGKAERDRVKQQAHDLERFMQNEKNKNEKKLIKLEKTLQDAGKADKYQLFGELLTANMYALKKGDKDIEVVNYYDENGGTVKIALDPLKTPSENAQRYFQKYQKAKNSIVVVEEQIEKTKEEILYFDSLLQQMEAASSKDIEEIREELAEEGYMRNRKTKNAKKKPTKPVLDKYVASDGTEIFVGKNNKQNDYLTTKFARRDEIWLHTKDIPGSHVVIRSLEPAEETLLEAAKIAAYYSKAKESSSVPVDFTKIRHVKKPSGAKLGFVTYDNQQTVYVTPDADTVMKLKA | not soluble |
| RVTDAEHPGVQLEFTNNKGELVSYEAISPWQKNAAGVNFHTFYGFGAVDLDEAMKRARMTNNVLPAQIITPWANNATEVSVPDASLAGGSSNIAITDDITVESVQVKLTLEHSRLPDLAIELVSPSGTRSVLQTPRNGLVGQSLDPNITGYENQLMLSNQFYGENAKGEWTLRAIDTNGDEVFSFIAYFNSSAIYDVPMANNAKPGVIKNWSMRIFGH | not soluble |
| MSLQKVKLPLTLDPVRTAQKRLDYQGIYTPDQVERVAESVVSVDSDVECSMSFAIDNQRLAVLNGDAKVTVTLECQRCGKPFTHQVYTTYCFSPVRSDEQAEALPEAYEPIEVNEFGEIDLLAMVEDEIILALPVVPVHDSEHCEVSEADMVFGELPEEAQKPNPFAVLASLKRKEGGSHHHHHH | soluble |
